The source of these data is paper doi:10.1101/2022.01.13.476208.

pKd: −log10 of the molar value.

Assay [1] addresses Wild-type GPIbα, residues 1-290, with Avi-tag, biotinylated. Kind of assay: BLI.
The target in a further assay is A1 short (human) (UniProt P04275). Kind of assay: ITC.

In assay [1], “A1 short (from UniProt P04275 1264-1469) (domain or fragment)” had a pKd of 6.74.
In turn, “A1+C (from UniProt P04275 1264-1486) (domain or fragment)” yielded a fold lower affinity than A1 short in assay [1] of 2.5 fold.
Still for that read-out and setting: under “A1+N (from UniProt P04275 1238-1469) (domain or fragment)” stands 4.3 fold.
Same read-out and setting: with “A1+N+C (from UniProt P04275 1238-1486) (domain or fragment)” the figure was 10 fold.
In assay [1], “A1+OGly+C (from UniProt P04275 1264-1489) (domain or fragment)” yielded a fold lower affinity than A1+C of 2 fold and a fold lower affinity than A1 without linkers of 6 fold.
In assay [1], “A1+OGly+N (from UniProt P04275 1238-1469) (domain or fragment)” showed a fold lower affinity than A1+N of 10 fold and a fold lower affinity than A1 without linkers of 51 fold.
Turning to “A1+OGly+N+C (from UniProt P04275 1238-1489) (domain or fragment)”, in assay [1], the pKd was 5.04, the fold increase in affinity in 10 mM against 150 mM NaCl came out at 20 fold, the fold increase in kon in 10 mM against 150 mM NaCl turned out to be 7 fold and the fold lower affinity than with the O-glycosylated N-linker alone was 1.2 fold.
Turning to “Wild-type GPIbα, residues 1-290, without Avi-tag (domain or fragment)”, in the assay with A1 short (human), the fold higher affinity than A1+OGly+N+C came to 39 fold.
